Test results from PMC9549473, “Triple-FRET multi-purpose fluorescent probe for three-protease detection” (RSC Advances, 2022).
Non-standard residues stand in square brackets, D forms with d. Residues, ends and D or L forms follow the SMILES beside them. Groups on a side chain read outwards from the residue. *: point of attachment. RhodamineB = CCN(CC)c1ccc2c(-c3ccccc3C(=O)*)c3ccc(=[N+](CC)CC)cc-3oc2c1; X1 = CC[N+](CC)=c1ccc2c(-c3ccccc3C(=O)*)c3c(oc-2c1)-c1ccc(N(C)C)cc1CC3; X3 = CCN(CC)c1ccc2cc(C(=O)N[C@@H](CCCCN*)C(=O)O)c(=O)oc2c1; X2 = O=C(c1ccccc1-c1c2ccc(=O)cc-2oc2cc(O)ccc12)*; AEEA = NCCOCCOCC(=O)O; Sar = CNCC(=O)O

Assays:
[1] = Solubility in aqueous media (Tris–HCl buffer); assay type: physicochemical; details: Tris–HCl buffer pH 8.0, from solid, read-out: solubility: stock solution that could be promptly and efficiently prepared
Description: (§1) Due to its size and complexity, the 4-dye probe (1) was also briefly examined from the solubility in aqueous media point of view. It turned out that at least 0.5 mM stock solution of the target substrate (1) in Tris–HCl buffer (pH = 8.0) could be promptly and efficiently prepared. For comparison, a solution of a hundredfold lower concentration (5 μM) of the 4-dye probe (1) in the same buffer media was utilized in the biological assays. The relatively high solubility of the substrate (1) could be attributed to its structure (Fig. 1), comprising six polyethylene glycol-based (PEG) spacers and two charged fluorophores (Rhodamine B and HN6). Moreover, three terminal carboxyl groups of the peptide backbone are instantly turned into corresponding carboxylate salts in a basic buffer environment, contributing to the solubility of the 4-dye probe (1) in aqueous media. Afterwards, its stability was taken into consideration. The dark blue powder obtained after freeze-drying was dissolved in an appropriate volume of Tris–HCl buffer (pH = 8.0), and shortly after that, LC-MS analysis was performed. The process was repeated a few times within one month.

[2] = Stability in buffer solution without enzyme (fluorescence responses, blank sample); assay type: physicochemical; details: no enzyme, 5 μM probe, λexc 425 nm
Description: Enzyme assays were carried out in 0.1 M Tris–HCl buffer solution in ultrapure water, with the addition of NaCl (25 mM), EDTA (5 mM) and glycerol (2.5% v/v). The pH of the media (pH = 8.0) was adjusted by gradual dropwise addition of concentrated NaOH aqueous solution.
The appropriate amount of the 4-dye probe (1) was dissolved in 950 μL of Tris–HCl buffer. The resulting solution was placed into a plastic fluorimeter cuvette and preheated to 37 °C. Afterwards, the fluorescence emission spectrum upon excitation with the light source of 425 nm was measured at the time 0 using a fluorescence spectrometer (Cary Eclipse, Agilent Technologies, Santa Carla, CA, USA). Then 20 μL of 1 mM HCl with/without enzyme (trypsin or chymotrypsin) and 30 μL of physiological saline solution with/without enzyme (caspase-8) were added, resulting in a final volume of 1 mL of 5 μM 4-dye substrate (1). In the case of caspase-8, DL-dithiothreitol (10 mM) was also present in a buffer. Fluorescence emission responses were then repeatedly measured at the times 2, 5, 8, 12, 16, 20, 25, 30, 35, 40, and 45 min. During the entire period of the experiment, a fluorimeter cuvette was placed in a cell holder preheated to 37 °C, and located inside a fluorescence spectrometer.
As the three target proteases, trypsin, chymotrypsin, and caspase-8 were considered. […] During the biological testing, the emission responses of all four dyes were monitored throughout the entire period of the experiment. The assay conditions and parameters were established based on our practical observations, theoretical facts, and previous experience.[12,28,29] To obtain a uniform incubation medium suitable for all three proteases detection, the appropriate conditions for trypsin and chymotrypsin sensing were combined with those suitable for caspase-8 screening. As a result, EDTA, NaCl and glycerol were added to the Tris–HCl buffer solution, and its pH value was set to 8.0. After dissolving the intact 4-dye probe (1) in that way prepared buffer, the emission responses of all four fluorophores were monitored within 45 min of incubation at 37 °C.

caspase-8 = target: T1, caspase-8 (Homo sapiens, UniProt Q14790); assay: LC-MS analysis of the probe cleaved by caspase-8; assay type: biochemical; details: LC-MS of cleavage fragments
T1 construct: Caspase-8 (human, recombinant, active, 5000 units per mg protein); purchased Enzo Life Sciences, Inc. (New York, USA)
T1 sequence (Q14790 217-374 limits assumed): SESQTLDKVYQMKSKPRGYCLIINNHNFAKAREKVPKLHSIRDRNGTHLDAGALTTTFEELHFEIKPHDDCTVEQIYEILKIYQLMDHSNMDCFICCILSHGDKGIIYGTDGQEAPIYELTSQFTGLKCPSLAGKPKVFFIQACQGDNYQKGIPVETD
T1 sequence (Q14790 385-479 limits assumed): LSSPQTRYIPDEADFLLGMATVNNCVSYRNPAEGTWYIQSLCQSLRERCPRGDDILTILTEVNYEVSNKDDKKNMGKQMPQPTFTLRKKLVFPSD

trypsin = target: T2, trypsin (Bos taurus, UniProt P00760); assay: LC-MS analysis of the probe cleaved by trypsin; assay type: biochemical, bovine; details: LC-MS of cleavage fragments
T2 construct: Trypsin (bovine pancreas, TPCK treated, ≥10 000 BAEE units per mg protein); purchased Sigma-Aldrich (Steinheim, Germany); host or cells: bovine pancreas (tissue-derived)
T2 sequence (P00760 24-246): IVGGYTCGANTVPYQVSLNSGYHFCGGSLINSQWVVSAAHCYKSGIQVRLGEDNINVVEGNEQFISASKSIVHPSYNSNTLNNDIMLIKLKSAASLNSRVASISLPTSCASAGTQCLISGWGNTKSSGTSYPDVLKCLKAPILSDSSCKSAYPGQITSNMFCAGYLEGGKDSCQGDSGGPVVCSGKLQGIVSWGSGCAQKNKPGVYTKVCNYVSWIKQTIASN
Description: (§2) Following the successful development of the methodology for the separate detection of individual proteases in a sample, we decided to investigate and evaluate the possibilities of simultaneous detection of multiple enzymes. […] Consequently, some potential ambiguities and drawbacks were expected from the perspective of nonspecific cleavage of the 4-dye substrate 1 by chymotrypsin. The experiments of the two-enzyme detection were performed with all three theoretically possible pairs of the considered proteases in their low concentrations.

[3] = target: T3, Caspase-8 (human, recombinant, active) (Homo sapiens, UniProt Q14790); assay: Single protease detection with the triple-FRET 4-dye probe: caspase-8; assay type: biochemical; details: 5 μM probe, Tris–HCl pH 8.0 with DTT 10 mM, 37 °C, 45 min, λexc 425 nm, three parallels
T3 construct: Caspase-8 (human, recombinant, active, 5000 units per mg protein); purchased Enzo Life Sciences, Inc. (New York, USA)
T3 sequence (Q14790 217-374 limits assumed): as the sequence (Q14790 217-374 limits assumed) above
T3 sequence (Q14790 385-479 limits assumed): as the sequence (Q14790 385-479 limits assumed) above
Text: (§3) Trypsin (bovine pancreas, TPCK treated, ≥10 000 BAEE units per mg protein) and α-chymotrypsin (bovine pancreas, TLCK treated, type VII, ≥40 units per mg protein) were ordered from Sigma-Aldrich (Steinheim, Germany). Caspase-8 (human, recombinant, active, 5000 units per mg protein) was provided by Enzo Life Sciences, Inc. (New York, USA). All enzyme species were obtained in the form of lyophilized white to off-white powders. They were reconstituted according to the providers' instructions, aliquoted in Eppendorf tubes, and finally stored at −80 °C in a deep freezer (Arctiko, Esbjerg Kommune, Denmark). […]
(§4) The appropriate amount of the 4-dye probe (1) was dissolved in 950 μL of Tris–HCl buffer. […] Afterwards, the fluorescence emission spectrum upon excitation with the light source of 425 nm was measured at the time 0 using a fluorescence spectrometer (Cary Eclipse, Agilent Technologies, Santa Carla, CA, USA). […] Fluorescence emission responses were then repeatedly measured at the times 2, 5, 8, 12, 16, 20, 25, 30, 35, 40, and 45 min. During the entire period of the experiment, a fluorimeter cuvette was placed in a cell holder preheated to 37 °C, and located inside a fluorescence spectrometer.
(§5) Additionally, the rules for individual protease recognition could be graphically presented, using fluorescence emission ratios of suitable fluorophores measured at particular times. […]

[4] = Storage stability of the solid, LC-MS; assay type: physicochemical; details: solid powder stored at −80 °C; dissolved to 50 μM in Tris–HCl pH 8.0 and analysed by LC-MS, repeated over 30 days
Description: The isolated 4-dye substrate (1) was characterized by LC-MS analysis and HRMS. Its final purity was determined based on LC-MS analysis, testing different analytical columns, mobile phases, gradients and elution times (ESI – Fig. S6 and S7 ^†). For stability testing, the 4-dye probe (1) in the form of powder (stored at −80 °C) was dissolved in an appropriate volume of Tris–HCl buffer (pH = 8.0) to obtain a 50 μM solution and subsequently analyzed by LC-MS. This process was repeated a few times over 30 days.
as §1, with “Afterwards, its stability was taken into consideration. The dark blue powder obtained after freeze-drying was dissolved in an appropriate volume of Tris–HCl buffer (pH = 8.0), and shortly after that, LC-MS analysis was performed. The process was repeated a few times within one month.” left out

[5] = target: T4, α-chymotrypsin (bovine pancreas, TLCK treated, type VII) (Bos taurus, UniProt P00766); assay: Single protease detection with the triple-FRET 4-dye probe: chymotrypsin; assay type: biochemical; details: 5 μM probe, Tris–HCl pH 8.0, 37 °C, 45 min, λexc 425 nm, three parallels
T4 construct: α-chymotrypsin (bovine pancreas, TLCK treated, type VII, ≥40 units per mg protein); purchased Sigma-Aldrich (Steinheim, Germany); host or cells: bovine pancreas (tissue-derived)
Text: as §3, §4, §5

chymotrypsin = target: T5, chymotrypsin (Bos taurus, UniProt P00766); assay: LC-MS analysis of the probe cleaved by chymotrypsin; assay type: biochemical, bovine; details: LC-MS of cleavage fragments; chymotrypsin 2.5 µg/mL, 2 hours
T5 construct: α-chymotrypsin (bovine pancreas, TLCK treated, type VII, ≥40 units per mg protein); purchased Sigma-Aldrich (Steinheim, Germany); host or cells: bovine pancreas (tissue-derived)
Description: as §2
Figure S10: LC-MS analysis of the 4-dye probe cleaved by chymotrypsin (2.5 µg/mL, 2 hours).
Fragment 1 (Rt = 1.46 min) […]

[6] = target: T6, Trypsin (bovine pancreas, TPCK treated) (Bos taurus, UniProt P00760); assay: Single protease detection with the triple-FRET 4-dye probe: trypsin; assay type: biochemical; details: 5 μM probe, Tris–HCl pH 8.0, 37 °C, 45 min, λexc 425 nm, three parallels
T6 construct: Trypsin (bovine pancreas, TPCK treated, ≥10 000 BAEE units per mg protein); purchased Sigma-Aldrich (Steinheim, Germany); host or cells: bovine pancreas (tissue-derived)
T6 sequence (P00760 24-246): T2 sequence (P00760 24-246)
Text: as §3, §4, §5

[7] = 16 min vs 0 min, Tris–HCl pH 8.0, 37 °C, mean of 3 parallels
[8] = 45 min vs 0 min, Tris–HCl pH 8.0, 37 °C, mean of 3 parallels

SMILES: CCN(CC)c1ccc2cc(C(=O)N[C@@H](CCCCNC(=O)COCCOCCNC(=O)[C@H](C)NC(=O)[C@H](CC(=O)O)NC(=O)[C@@H](NC(=O)[C@H](CCC(=O)O)NC(=O)[C@H](CC(C)C)NC(=O)COCCOCCNC(=O)[C@H](CCCCNC(=O)CN(C)C(=O)c3ccccc3-c3c4ccc(=O)cc-4oc4cc(O)ccc34)NC(=O)COCCOCCNC(=O)[C@H](C)NC(=O)[C@H](CCCCN)NC(=O)[C@H](C)NC(=O)COCCOCCNC(=O)[C@H](CCCCNC(=O)CN(C)C(=O)c3ccccc3-c3c4ccc(=[N+](CC)CC)cc-4oc4cc(N(CC)CC)ccc34)NC(=O)COCCOCCNC(=O)[C@H](C)NC(=O)[C@H](Cc3ccccc3)NC(=O)[C@H](C)NC(=O)COCCOCCNC(=O)CN(C)C(=O)c3ccccc3-c3c4ccc(=[N+](CC)CC)cc-4oc4c3CCc3cc(N(C)C)ccc3-4)[C@@H](C)O)C(=O)O)c(=O)oc2c1 [4-dye probe (1)] (X1-[Sar][AEEA]AFA[AEEA]K([Sar-RhodamineB])[AEEA]AKA[AEEA]K([Sar-X2])[AEEA]LETDA[AEEA]-X3)
- solubility [1]: ≥ 500 µM
- fluorescence intensities of all four dyes during incubation in buffer (stability in buffer) ([2]; Tris–HCl pH 8.0 with NaCl, EDTA, glycerol, 37 °C, 45 min): practically unchanged
- DEAC (I16/I0) [2, 7]: 1.03
- DEAC(I16/I0)/FL(I16/I0) [2, 7]: 0.99
- FL (I16/I0) [2, 7]: 1.04
- HN6 (I16/I0) [2, 7]: 0.97
- DEAC (I45/I0) [2, 8]: 1.05
- DEAC(I45/I0)/FL(I45/I0) [2, 8]: 0.97
- FL (I45/I0) [2, 8]: 1.08
- HN6 (I45/I0) [2, 8]: 0.97
- sites of the probe cleaved by caspase-8 (caspase-8): cleave only their own recognizable sites
- sites of the probe cleaved by trypsin (trypsin): cleave only their own recognizable sites
- lowest detectable concentration of caspase-8 [3]: 2 U mL^−1
- stability on storage (comparable LC-MS chromatograms and peak areas) [4]: at least 30 days
- lowest detectable concentration of chymotrypsin [5]: 0.2 µg/mL
- sites of the probe cleaved by chymotrypsin (chymotrypsin): both chymotrypsin and trypsin linkers were cleaved
- lowest detectable concentration of trypsin [6]: 0.5 ng/mL
